Reference: patent publication US20200262895A1 (Biogen, published 2020)

Molecular target: T1, recombinant human tau, isoform Tau-F of 441 aa (hTau40) (human, UniProt P10636 1-758)
T1 construct: Bought from rPeptide (Bogart, GA, USA); coated on ELISA plates, blotted, or spotted as overlapping peptides; also called full-length tau; rTau
Assay: direct ELISA on coated recombinant tau (rTau)

T1 sequence (P10636 other isoform, or with tags, fused parts or gaps limits assumed): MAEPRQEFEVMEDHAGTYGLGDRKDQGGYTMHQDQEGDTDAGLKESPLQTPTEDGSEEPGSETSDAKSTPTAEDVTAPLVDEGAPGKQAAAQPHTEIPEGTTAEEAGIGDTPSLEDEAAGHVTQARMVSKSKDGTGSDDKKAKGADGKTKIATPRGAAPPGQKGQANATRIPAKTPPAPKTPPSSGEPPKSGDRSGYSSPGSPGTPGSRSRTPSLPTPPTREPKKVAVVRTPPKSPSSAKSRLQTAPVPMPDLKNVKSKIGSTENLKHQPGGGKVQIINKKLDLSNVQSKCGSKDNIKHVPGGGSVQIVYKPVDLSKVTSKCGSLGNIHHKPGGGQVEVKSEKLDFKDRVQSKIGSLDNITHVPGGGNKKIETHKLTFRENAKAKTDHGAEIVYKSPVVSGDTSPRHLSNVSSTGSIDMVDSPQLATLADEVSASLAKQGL

Binder | EC50
recombinant human antibody NI-105.9C4 (germlined) (antibody, human IgG1, V domains shown, Complete human IgG1 by the methods) VH: QVQLVQSGAEVKKPGASVKVSCKASGYIFTAFFMHWVRQAPGQGLEWMGWINPDSGATKYAHNFQGRVTMTRDTSISTAFMELSGLKSDDTGVYYCATGMAVTGNFWGQGTLVTVSS VL: SYELTQPPSVSVSPGQTARITCSGDVLAETYARWFQQKPGQAPVLVMYRDRERPAGIPERFSGSSSGNTVTLTISGAQAEDEAVYHCHSVADNNLDWVFGGGTKLTVL | 5.2 nM
recombinant human antibody NI-105.19C6 (germlined) (antibody, human IgG1, V domains shown, Complete recombinant human IgG1 by the methods) VH: EVQLVQSGAEVKKPGESLKISCKASGYSFISYWVGWVRQMPGKGLEWMGIIYPGDSDTRYSPSFEGQVSISADKSISTAYLQWTSLKASDTAMYYCARHWGPAAVTDSPWFGPWGQGTLVTVSS VL: not shown | 4 nM
recombinant human antibody NI-105.12E12 (germlined) (antibody, human IgG1, V domains shown, Complete recombinant human IgG1 by the methods) VH: EVQLVESGGGLVQPGGSLKLSCAASGFSFSDSAFHWARQASGKGLEWVGRIRSKGNNYATAYAASVKGRFTVSRDDSKNTTYLQMNSLKTDDTAIYYCTRQGPSYGGINWGLGTLVTVSS VL: not shown | 28.6 nM
recombinant human antibody NI-105.26B12 (germlined) (antibody, human IgG1, V domains shown, Complete recombinant human IgG1 by the methods) VH: QVQLVESGGGVVQPGRSLRLSCAASGFTFTRYGMHWVRQAPGKGLEWVAVIWYDGTNKYYADSLQGRFTISRDTSTNTLYLQMNGLRVEDRAVYYCAREGFQGAIDYWGQGTLVTVSS VL: not shown | 2.9 nM
recombinant human antibody NI-105.29G10 (germlined) (antibody, human IgG1, V domains shown, Complete recombinant human IgG1 by the methods) VH: EVQLVESGGDLVQPGGSLRLSCAASGFDFSGYSMAWVRQAPGKGLEWVSYISGTYVSGGTGTMYYLDSVKGRFFISRDDATSSLYLQMDSLRDEDTAVYYCARVYDYGEDWGQGTLVTVSS VL: not shown | 3.8 nM
recombinant human antibody NI-105.17C1 (not germlined, as used in Table 7) (antibody, human IgG1, V domains shown, Complete human IgG1 by the methods) VH: EVQLVQSGAEVKKPGESLKISCKAFGYSFTNFWIGWVRQVPGKGLEWVGIIYPGDSDTRYSPSFQGQVTISADKSIDTAYLQWGHLKASDSAMYFCARRGFWTGSQIEYWGQGTLVTVSS VL: QSALTQPPSASGSPGHSVTISCTGTSSDVGNYSFVSWYQQYPGKAPKVIIYDVSKRSSGVPDRFFGSKSANTASLTVSGVQEEDEADYFCSSYGGSKYPWVFGGGTKLTVL | 3.3 nM

Now from value to binder:

EC50 | Binder
2.5 nM | recombinant human antibody NI-105.6L9 (germlined) (antibody, human IgG1, V domains shown, Complete recombinant human IgG1 by the methods) VH: EVQLVESGGGLVQPGGSLRLSCAGTRFTFSTYAMGWVRQAPGRGLEWVSAIGGSGDSTSYADSVKGRFTISRDNSKNTLYLQMNSLRAEDTAVYYCAKGVYDYLWGSYRLFDYWGQGTLVTVSS VL: SYVLTQPPSVSVAPGQTARFTCGGNNIASKSVHWYQQKPGQAPVLVVYDDSDRPSRIPERFSGSNSGNTATLTISRVEAGDEADYYCQVWDSTSDHVVFGGGTKLTVL
1.1 nM | recombinant human antibody NI-105.22E1 (germlined) (antibody, human IgG1, V domains shown, Complete recombinant human IgG1 by the methods) VH: EVQLVQSGAEVKKPGESLKISCKGSGYRFTTYWIGWVRQMPGKGLEWMGIIYPGDSDTRYSPSYQGQVTISADKSISTAYLQWSSLKASDTGMYYCARVAGDIGYENYYYYGMDVWGQGTTVTVSS VL: not shown
0.7 nM | recombinant human antibody NI-105.39E2 (germlined) (antibody, human IgG1, V domains shown, Complete recombinant human IgG1 by the methods) VH: EVQLVESGGGLVQPGGSLRLSCAASGFTFSAYGMNWVRQAPGKGLEWVAHITGSGTPIFYADSVKGRFTISRDNAKSSLYLQMNSLRNDDTALYFCVRGTVDYWGQGTLVTVSS VL: QAGLTQPPSVSKDLRQTATLTCSGNSNNVGNQGAAWLQQFPGHPPKLLFYENINRPSGISERFSASRSGNTASLTITGLQPEDEADYYCSAWDGHLNAWVFGGGTKLTVL
0.65 nM | recombinant human antibody NI-105.14E2 (germlined) (antibody, human IgG1, V domains shown, Complete recombinant human IgG1 by the methods) VH: EVQLVQSGAEVKKPGDSLRISCKASGYNFPNYWIGWVRQMPGKGLEWMGIIYPGDSDIRYSPSFQGHVTISSDKSITTAYLQWTSLKVADSAMYYCARVERPDKGGWFGPWGQGTLVTVSS VL: DIVMTQSPDSLAVSLGERATINCKSSQTLLYTSNNQNYLAWYQHKPGQPPKVLIYWASTREYGVPDRFSGSGSGTDFTLTISSLQPEDVAVYYCQQYYNSPYTFGQGTKLEIK
0.18 nM | recombinant human antibody NI-105.60E7 (germlined) (antibody, human IgG1, V domains shown, Complete recombinant human IgG1 by the methods) VH: EVQLVESGGGFVRPGGSITLSCATSGFTFTKAWMTWVRQAPVKGLEWIGHIKTRIEGATTDYAAPVEGRFTISRDDSKNMVYLQMNSLKTEDSGIYYCSTDFDYWGQGTLVTVSS VL: DVVMTQSPLSLPVTLGQPASISCTSSQSLLYSDGNTYLNWFQQRPGQSPRRLMYKVSKRDPGVPDRFSGSGSGTDFTLSISRVEAEDVGVYYCMQGSLWPRYTFGQGTKVEIK

Molecular target: T1, recombinant human tau, isoform Tau-F of …
Assay: ELISA on recombinant Tau, absorbance at 450 nm

EC50 (read off the curve) | Binder
~0.9 µg/mL | ch17C1(N31Q) mIgG1 Agly (antibody, Aglycosylated Fc; also called ch17C1-mIgG1-Agly; ch17C1 Agly) heavy: EVQLVQSGAEVKKPGESLKISCKAFGYSFTNFWIGWVRQVPGKGLEWVGIIYPGDSDTRYSPSFQGQVTISADKSIDTAYLQWGHLKASDSAMYFCARRGFWTGSQIEYWGQGTQVTVSSAKTTPPSVYPLAPGSAAQTNSMVTLGCLVKGYFPEPVTVTWNSGSLSSGVHTFPAVLQSDLYTLSSSVTVPSSTWPSETVTCNVAHPASSTKVDKKIVPRDCGCKPCICTVPEVSSVFIFPPKPKDVLTITLTPKVTCVVVDISKDDPEVQFSWFVDDVEVHTAQTQPREEQFQSTFRSVSELPIMHQDWLNGKEFKCRVNSAAFPAPIEKTISKTKGRPKAPQVYTIPPPKEQMAKDKVSLTCMITDFFPEDITVEWQWNGQPAENYKNTQPIMDTDGSYFVYSKLNVQKSNWEAGNTFTCSVLHEGLHNHHTEKSLSHSPGK light: QSALTQPPSASGSPGHSVTISCTGTSSDVGQYSFVSWYQQYPGKAPKIIIYDVSKRSSGVPDRFFGSKSANTASLTVSGVQEEDEADYFCSSYGGSKYPWVFGGGTKLTVLGQPKSSPSVTLFPPSSEELETNKATLVCTITDFYPGVVTVDWKVDGTPVTQGMETTQPSKQSNNKYMASSYLTLTARAWERHSSYSCQVTHEGHTVEKSLSRADCS
~0.8 µg/mL | chimeric NI-105.17C1 (ch17C1), mouse IgG2a/lambda (antibody, V domains shown, N-glycan on Asn-31 (CDR1), fully occupied on CHO expression, also called ch17C1-mIgG2a) VH: EVQLVQSGAEVKKPGESLKISCKAFGYSFTNFWIGWVRQVPGKGLEWVGIIYPGDSDTRYSPSFQGQVTISADKSIDTAYLQWGHLKASDSAMYFCARRGFWTGSQIEYWGQGTQVTVSS VL: QSALTQPPSASGSPGHSVTISCTGTSSDVGNYSFVSWYQQYPGKAPKIIIYDVSKRSSGVPDRFFGSKSANTASLTVSGVQEEDEADYFCSSYGGSKYPWVFGGGTKLTVLG

Molecular target: T1, recombinant human tau, isoform Tau-F of …
Assay: ELISA on recombinant Tau, absorbance at 450 nm
Remark: another data set of the same source

EC50 (read off the curve) | Binder
~0.3 µg/mL | ch17C1(N31Q, I48V) mIgG2a (antibody, V domains shown, The sentence giving the chains names the antibody 'ch17C1(N31Q) mIgG2a' but lists the (N31Q, I48V) light chain) VH: EVQLVQSGAEVKKPGESLKISCKAFGYSFTNFWIGWVRQVPGKGLEWVGIIYPGDSDTRYSPSFQGQVTISADKSIDTAYLQWGHLKASDSAMYFCARRGFWTGSQIEYWGQGTQVTVSS VL: QSALTQPPSASGSPGHSVTISCTGTSSDVGQYSFVSWYQQYPGKAPKVIIYDVSKRSSGVPDRFFGSKSANTASLTVSGVQEEDEADYFCSSYGGSKYPWVFGGGTKLTVLG

Molecular target: T2, PHFTau (paired helical filaments containing pathologically phosphorylated tau filaments, extracted from AD … (human, UniProt P10636-8 1-441, limits assumed, pathologically phosphorylated (sites of the preparation not listed), aggregated filaments))
T2 construct: Brain extract, not a single defined isoform; also called human PHF tau; pathologically modified PHFTau
T2 sequence (P10636 other isoform, or with tags, fused parts or gaps limits assumed): as the sequence (P10636 other isoform, or with tags, fused parts or gaps limits assumed) above
Assay: direct ELISA on coated PHFTau

EC50 | Binder
5.3 nM | recombinant human antibody NI-105.29G10 (germlined) (antibody, human IgG1, V domains shown, Complete recombinant human IgG1 by the methods) VH: EVQLVESGGDLVQPGGSLRLSCAASGFDFSGYSMAWVRQAPGKGLEWVSYISGTYVSGGTGTMYYLDSVKGRFFISRDDATSSLYLQMDSLRDEDTAVYYCARVYDYGEDWGQGTLVTVSS VL: not shown
4.7 nM | recombinant human antibody NI-105.17C1 (not germlined, as used in Table 7) (antibody, human IgG1, V domains shown, Complete human IgG1 by the methods) VH: EVQLVQSGAEVKKPGESLKISCKAFGYSFTNFWIGWVRQVPGKGLEWVGIIYPGDSDTRYSPSFQGQVTISADKSIDTAYLQWGHLKASDSAMYFCARRGFWTGSQIEYWGQGTLVTVSS VL: QSALTQPPSASGSPGHSVTISCTGTSSDVGNYSFVSWYQQYPGKAPKVIIYDVSKRSSGVPDRFFGSKSANTASLTVSGVQEEDEADYFCSSYGGSKYPWVFGGGTKLTVL
